Measurements as given in PMC4188581 (2014).

Molecular target: CDK2 (Homo sapiens, UniProt P24941)
Experiment: SPR

## LAALS (60 uM ATP) [LAALS peptide]
  Kd: 61 µM
